Laboratory results as given in US6451571B1, “Thymidine kinase mutants” (University of Washington, priority 1994, dated 2002).
Where two headings read alike, the source gives them in different places.

Assays:
ts13 BHK tk− cells = assay: ED50 determination with GCV or ACV in transfected BHK tk− cells (Alamar Blue); type: cell-based, baby hamster; conditions: pooled G418-resistant transfectants, 4 days on nucleoside analog
Procedure: Briefly, the cell transfections are performed as follows. Approximately 5×10^5 ts13 BHK tk^− cells (ATCC CRL-1632) are plated on 100 mm dishes in DMEM+10% calf serum. For each transfection 1 μg of pSV2neo and 10 μg of a pCMV construct (pCMV, pCMV:TK-wrong (HSVTK in the wrong orientation relative to the promoter), pCMV:HSVTK, pCMV:30, pCMV:75 or pCMV:132 DNA) in 0.25M CaCl2 are mixed with 0.5 ml 2×BBS (see Chen and Okayama) and preincubated at 37° C. at 2.5% CO2 […]. The CaCl2/DNA mix is added dropwise to the plates and mixed in well. After a 24 hour incubation at 37° C. in a 2.5% CO2 wet incubator, the cells are rinsed twice with Dulbecco PBS minus Ca/Mg and fed with fresh DMEM+10% calf serum. Plates are incubated at 37° C. with 6% CO2. After 72 hours post-transfection the cells are split 1:3 and plated in DMEM+10% calf serum containing G418 at 600 μg/ml.
The cells are selected on G418 (600 μg/ml) at 37° C. for 17 days. During this time the plates are pooled (for each DNA transfection) and split three times at a ratio of 1:3. Approximately 30-40 clones are selected in this manner for each transfected DNA containing a tk gene in the correct orientation. The pCMV and pCMV:TK-wrong transfections yielded between 130 and 140 clones each. […]
Determination of the fluorescence level of cells incubated in the presence of Alamar Blue directly relates to cell viability.

[1] = Enzyme kinetics of purified TK, thymidine; type: biochemical; conditions: substrate thymidine
Procedure: (§1) A single colony of pET23d:HSVTK, pET23d:30, pET23d:75 and pET23d:132 in BL21(DE3)tk^− cells is used to inoculate 5 ml of M9ZB medium (1% tryptone, 0.5% NaCl, 1×M9 salts, 1 mM MgSO4, 100 μM CaCl2 and 0.2% glucose) containing cabenicillin at 20 μg/ml. The culture is incubated at 37° C. overnight. The following day the 5 ml culture is used to inoculate 1L M9ZB+cabenicillin at 20 μg/ml and the culture allowed to grow at 37° C. to OD600 0.1. At that point IPTG is added to 0.4 mM and the culture incubated a further 3 hours. The cells are chilled on ice, pelleted by centrifugation and the pellets washed once in cell wash buffer (50 mM Tris, pH 7.5, 5mM EDTA, 10% sucrose) prior to freezing the pellets at −70° C. […]
(§2) A thymidylyl-sepharose column is used for a one step purification procedure (see Example 2). […] The extent of purification is monitored by Coomassie stained SDS:PAGE analysis and the concentration of purified protein determined using the BioRad Reagent (Bradford Reagent). […]
(§3) The kinetics of thymidine, ganciclovir and acyclovir phosphorylation by the wild-type, mutant 30 and 75 thymidine kinase enzymes with variant concentrations of radioactive nucleoside substrate are determined essentially as described in Example 3. Km and Vmax values are determined from double reciprocal plots and kcat values are calculated using the equation Vmax=kcat [Eo] where [Eo] is the total enzyme concentration. […]

[2] = Enzyme kinetics of purified TK, ganciclovir; type: biochemical; conditions: substrate ganciclovir
Procedure: as §1, §2, §3

BHK tk− cells = assay: Sensitivity of guanylate kinase transfectant pools to ACV in TK expressing clones; type: cell-based, baby hamster; conditions: three days with ACV
Procedure: pREP8-7, pREP8-7:hgmk and pREP8-7:mgmk are used to transfect BHK tk, TK-transfected clone C3 and 75-transfected clone D4. Histidinol is used to select pools of stable transfectants and to isolate individual clones.
As in Example 8, pools of transfectants are placed in 96 well microtiter dishes at 1000 cells/well. Eight replicates are incubated for three days in the presence of various GCV or ACV concentrations.

For “WT: wild-type HSV-1 thymidine kinase with McKnight sequence (pT7:HSVTKII and derived vectors)”, which EC50 (ts13 BHK tk− cells; read-out: ED50 ACV) is on record?
Its EC50 is 25 µM.

What about the EC50 (ts13 BHK tk− cells; read-out: ED50 GCV) of the same molecule?
The EC50 was 20 µM.

What about the Km [1] of the same molecule?
Its Km is 0.38 µM.

What about the kcat ([1]; per active site) of the same molecule?
The kcat was “.230 s⁻¹”.

And the Km [2]?
The Km was 47.6 µM.

What about the kcat ([2]; per active site) of the same molecule?
The kcat was “.050 s⁻¹”.

B1: Guanylate kinase: human or murine guanylate kinase expressed from pREP8-7 in wild-type TK clone C3 cells (protein, UniProt Q16774 2-197, looked up)
Guanylate kinase: SGPRPVVLSGPSGAGKSTLLKRLLQEHSGIFGFSVSHTTRNPRPGEENGKDYYFVTREVMQRDIAAGDFIEHAEFSGNLYGTSKVAVQAVQAMNRICVLDVDLQGVRNIKATDLRPIYISVQPPSLHVLEQRLRQRNTETEESLVKRLAAAQADMESSKEPGLFDVVIINDSLDQAYAELKEALSEEIKKAQRTGA
Which “increased sensitivity to ACV relative to TK expression alone” value (BHK tk− cells) does the source give for B1 here?
Its value is “approximately 2 fold”.
